Measurements from US20230406935A1 (F STAR THERAPEUTICS, published 2023).

Key:
[1] = molecular target: T1, Mouse CD80 expressed on HEK 293 cells (mouse, UniProt Q00609 38-306); assay: flow cytometry on HEK 293 cells
T1 sequence: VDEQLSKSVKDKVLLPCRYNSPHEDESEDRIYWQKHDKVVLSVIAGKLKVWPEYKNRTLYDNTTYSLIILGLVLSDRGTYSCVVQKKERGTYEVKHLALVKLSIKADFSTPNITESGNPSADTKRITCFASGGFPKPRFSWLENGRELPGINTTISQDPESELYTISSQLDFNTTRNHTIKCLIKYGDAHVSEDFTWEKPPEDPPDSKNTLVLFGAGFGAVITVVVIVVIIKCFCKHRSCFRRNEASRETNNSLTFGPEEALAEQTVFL

[2] = molecular target: Mouse PD-L1 expressed on HEK 293 cells (mouse, UniProt Q9EP73 19-290); assay: flow cytometry on HEK 293 cells
[3] = molecular target: T2, Human PD-1 expressed on HEK 293 cells (human, UniProt Q15116 25-288); assay: flow cytometry on HEK 293 cells
T2 construct: also called hPD-1

[4] = molecular target: T3, Human CD80 expressed on HEK 293 cells (human, UniProt P33681 35-288); assay: flow cytometry on HEK 293 cells
T3 construct: also called hCD80
T3 sequence: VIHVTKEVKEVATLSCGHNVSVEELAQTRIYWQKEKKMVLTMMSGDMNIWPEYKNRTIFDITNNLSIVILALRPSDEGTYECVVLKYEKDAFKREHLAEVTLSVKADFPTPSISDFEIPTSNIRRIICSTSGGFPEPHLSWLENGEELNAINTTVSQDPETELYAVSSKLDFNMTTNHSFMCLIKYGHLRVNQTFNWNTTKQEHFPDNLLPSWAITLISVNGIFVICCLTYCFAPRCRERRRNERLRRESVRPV

[5] = molecular target: T4, Recombinant mouse PD-L1 with a C-terminal human IgG tag (R&D Systems, 1019-B7), biotinylated (mouse, UniProt Q9EP73 19-238); assay: SPR BIAcore 3000, mouse PD-L1 Fc on streptavidin chip
T4 construct: also called mouse PD-L1 Fc
T4 sequence (Q9EP73 19-238 limits assumed): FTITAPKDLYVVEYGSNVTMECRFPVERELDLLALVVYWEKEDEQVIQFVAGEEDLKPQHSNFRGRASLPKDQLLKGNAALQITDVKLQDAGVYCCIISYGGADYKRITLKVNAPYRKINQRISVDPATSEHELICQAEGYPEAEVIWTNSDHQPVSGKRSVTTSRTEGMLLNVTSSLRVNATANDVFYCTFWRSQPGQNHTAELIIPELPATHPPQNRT

Sequence of Mouse PD-L1 expressed on HEK 293 cells (Q9EP73 19-290 limits assumed): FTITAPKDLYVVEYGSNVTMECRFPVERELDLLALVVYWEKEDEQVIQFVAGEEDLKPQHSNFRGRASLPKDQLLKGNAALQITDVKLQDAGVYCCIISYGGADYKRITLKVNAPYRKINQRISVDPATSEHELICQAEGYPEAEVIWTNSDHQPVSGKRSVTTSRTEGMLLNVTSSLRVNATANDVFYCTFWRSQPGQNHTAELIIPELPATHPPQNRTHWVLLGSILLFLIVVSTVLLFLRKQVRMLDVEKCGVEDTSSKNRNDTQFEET
T2 sequence (Q15116 25-288 limits assumed): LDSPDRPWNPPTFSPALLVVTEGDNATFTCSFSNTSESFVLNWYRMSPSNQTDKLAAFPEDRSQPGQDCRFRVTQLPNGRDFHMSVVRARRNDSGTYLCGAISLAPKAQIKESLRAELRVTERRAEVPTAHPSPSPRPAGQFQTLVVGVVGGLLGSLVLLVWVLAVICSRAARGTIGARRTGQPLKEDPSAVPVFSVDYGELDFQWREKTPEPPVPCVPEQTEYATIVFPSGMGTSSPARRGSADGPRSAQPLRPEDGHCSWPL

B1: Fcab FS17-33 (Example 1, soluble Fcab with truncated hinge) (designed binder)
chain: TCPPCPAPELLGGPSVFLFPPKPKDTLMISRTPEVTCVVVDVSHEDPEVKFNWYVDGVEVHNAKTKPREEQYNSTYRVVSVLTVLHQDWLNGKEYKCKVSNKALPAPIEKTISKAKGQPREPQVYTLPPSRDEQSGYWVSLTCLVKGFYPSDIAVEWESNGQPENNYKTTPPVLDSDGSFFLYSKLTVSNWRWQMGDFSCSVMHEALHNHYTQKSLSLSPGK
**Q.** Does B1 bind [1]?
**A.** Result: no binding (tested: 1 µM)

**Q.** Does B1 bind [2]?
**A.** Result: no binding (tested: 1 µM)

**Q.** Does B1 bind [3]?
**A.** Result: no binding (tested: 1 µM)

**Q.** Does B1 bind [4]?
**A.** Result: no binding (tested: 1 µM)

**Q.** Does B1 bind [5]?
**A.** Result: no binding
